Legend:
[1] = target: β-淀粉样多肽 Aβ1-42 (beta-amyloid peptide, purified) (human) (UniProt P05067); assay: phage ELISA on coated Aβ, OD490, against negative control (2% MPBS)
[2] = target: β-淀粉样多肽 Aβ1-42 (beta-amyloid peptide, purified) (human) (UniProt P05067); assay: repeated phage ELISA on coated Aβ, OD490, against negative control
[3] = target: β-淀粉样多肽 Aβ1-42 (beta-amyloid peptide, purified) (human) (UniProt P05067); assay: ELISA on coated Aβ, whole-cell protein fraction; induced against uninduced strain
[4] = target: β-淀粉样多肽 Aβ1-42 (beta-amyloid peptide, purified) (human) (UniProt P05067); assay: ELISA on coated Aβ, culture supernatant fraction; induced against uninduced strain
[5] = target: β-淀粉样多肽 Aβ1-42 (beta-amyloid peptide, purified) (human) (UniProt P05067); assay: ELISA of soluble scFv fractions on coated Aβ, anti-c-myc detection; induced against uninduced strain

Chain of UniProt P05067 (P05067 672-713 limits assumed): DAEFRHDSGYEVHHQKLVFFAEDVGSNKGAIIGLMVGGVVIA

B1: A10 单克隆噬菌体抗体 (phage-displayed human anti-Aβ scFv, clone A10) (scFv, part only; not given: linker, tag and phage fusion, not shown: small tags and cut ends; large carriers)
scFv (part 1 of 2), part: EVQLVQSGAEVKRPGSSVNVSCKASGGTLSNYGLSWVRQAPGQGLEWMGGIIPSFGPANYAQIFQGRVTITADESTNTAYMELRSLTSDDTAVYYCAREGGVGVATTYWLDPWGQGTTVTVSS
scFv (part 2 of 2), part: HFMLTQPHSVSESPGKTVTISCTRSSGSIASTYVHWYQQRPGTSPTTVIYEDNRRHSRVPDRFSGSIDSSSNSASLTISGLKTEDEGDYYCQSYDSTNAWVFGGGTKVTVLG
ELISA A值 fold over negative control [1]: 2 fold | ELISA A值 fold over negative control [2]: > 5 fold

B2: A10 可溶性抗Aβ scFv (soluble scFv of clone A10 expressed in E. coli HB2151) (scFv, V domains shown, not shown: small tags and cut ends)
VH: EVQLVQSGAEVKRPGSSVNVSCKASGGTLSNYGLSWVRQAPGQGLEWMGGIIPSFGPANYAQIFQGRVTITADESTNTAYMELRSLTSDDTAVYYCAREGGVGVATTYWLDPWGQGTTVTVSS
VL: HFMLTQPHSVSESPGKTVTISCTRSSGSIASTYVHWYQQRPGTSPTTVIYEDNRRHSRVPDRFSGSIDSSSNSASLTISGLKTEDEGDYYCQSYDSTNAWVFGGGTKVTVLG
ELISA A值 fold of induced over uninduced strain [3]: > 5 fold | ELISA A值 fold of induced over uninduced strain [4]: > 5 fold | ELISA A值 fold of induced over uninduced strain [5]: > 2 fold

B3: F2 单克隆噬菌体抗体 (phage-displayed human anti-Aβ scFv, clone F2) (scFv, part only; not given: linker, tag and phage fusion, not shown: small tags and cut ends; large carriers)
scFv (part 1 of 2), part: EVQLVQSGAEVKRPGSSVNVSCKASGGTLSNYGLSWVRQAPGQGLEWMGGIIPSFGPANYAQIFQGRVTITADESTNTAYMELRSLTSDDTAVYYCAREGGVGVATTYWLDPWGQGTTVTVSS
scFv (part 2 of 2), part: HFMLTQPHSVSESPGKTVTISCTRSSGSIASTYVHWYQQRPGTSPTTVIYEDNRRHSRVPDRFSGSIDSSSNSASLTISGLKTEDEGDYYCQSYDSTNAWVFGGGTKVTVLG
ELISA A值 fold over negative control [1]: > 2 fold | ELISA A值 fold over negative control [2]: > 5 fold

B4: F2 可溶性抗Aβ scFv (soluble scFv of clone F2 expressed in E. coli HB2151) (scFv, V domains shown, not shown: small tags and cut ends)
VH: EVQLVQSGAEVKRPGSSVNVSCKASGGTLSNYGLSWVRQAPGQGLEWMGGIIPSFGPANYAQIFQGRVTITADESTNTAYMELRSLTSDDTAVYYCAREGGVGVATTYWLDPWGQGTTVTVSS
VL: HFMLTQPHSVSESPGKTVTISCTRSSGSIASTYVHWYQQRPGTSPTTVIYEDNRRHSRVPDRFSGSIDSSSNSASLTISGLKTEDEGDYYCQSYDSTNAWVFGGGTKVTVLG
ELISA A值 fold of induced over uninduced strain [3]: > 5 fold | ELISA A值 fold of induced over uninduced strain [4]: > 5 fold | ELISA A值 fold of induced over uninduced strain [5]: > 2 fold
